The results in this text go back to the RNAGym collection of RNA variant scans (doi:10.1073/pnas.2313332121).

B1: TPR t1 (parent)
chain: GACCAAUCUGCCCUCAGAGCUCGAGAACAUCUUCGGAUGCAGAGGAGGCAGGCUUCGGUGGCGCGAUAGCGCCAACGUCCUCAACCUCCAAUGCAUCCCACCACAUGAUGAUGCCUGAAGAGCCUUGGUUUUUUG

Variants of B1 are the subject of this series. Description: polymerase ribozyme fitness, log enrichment relative to wild type (log ratio); higher = more active; in vitro selection for triplet polymerase activity. The procedure, abridged: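 After PCR construction and transcription, each subunit's mutant library from a heterodimeric triplet polymerase ribozyme was annealed with a biotinylated primer, the partner subunit and triplets. Incubation was frozen, at −7 °C, and extended constructs were gel-excised, bound to streptavidin beads and amplified by RT-PCR, in one selection round done in triplicate. Fitness is the logarithm of a genotype's enrichment divided by that of the wild type, from inverse-variance-weighted replicate averages of Illumina-sequenced inputs and outputs. The base of the logarithm is 2, and genotypes needed ≥10 input reads and ≥1 read per output.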
Consider C40A A91G C99U A111U G122A, for which the “polymerase ribozyme fitness (log ratio)” value was -6.79.
C15A C94U G120C: the “polymerase ribozyme fitness (log ratio)” value is -0.704.
For C12U C123G, the “polymerase ribozyme fitness (log ratio)” value amounted to 2.68.
As to C31U G61A C123G, the “polymerase ribozyme fitness (log ratio)” value is -3.22.
The result for A6U U129A reads -1.16; that for C11G G17C C53U C79U U129G, -3.84.
In the case of G44U C49A C56U G117A, the “polymerase ribozyme fitness (log ratio)” value was -2.64.
Turning to C20G G60C, the “polymerase ribozyme fitness (log ratio)” value is -4.55.
In the case of C40U G45U, the “polymerase ribozyme fitness (log ratio)” value was -2.01.
The result for U32C C104U reads 0.382; that for C12A G42C G69U C80U, -1.06.
For C28U C89U, the “polymerase ribozyme fitness (log ratio)” value is -2.51.
In the case of U9A G110U G117A, the “polymerase ribozyme fitness (log ratio)” value is -2.51.
To G35U G113C belongs -7.04; to C56U A100C U112C, 0.715.
In the case of G57U U87A, the “polymerase ribozyme fitness (log ratio)” value is -0.845.
In the case of C8G G10A C15G G77C G110A, the “polymerase ribozyme fitness (log ratio)” value is -3.26.
With G48A C62A U81A, the “polymerase ribozyme fitness (log ratio)” value was -3.27.
The result for C53A G128A reads -1.61.
Turning to C8U A37G G52A C56U, the “polymerase ribozyme fitness (log ratio)” value is -0.753.
As to C12U G47U, the “polymerase ribozyme fitness (log ratio)” value is -0.627.
On to G44U C64G C101G A121U, for which the “polymerase ribozyme fitness (log ratio)” value was -6.22.
To C40G C89G G93A belongs -2.6; to C12G G52U C53G G60U, -0.409; to C11G C40U G69U A74G C79A C115A, -4.
For the variant C40U C56A C73U C82G C97U C115U, the “polymerase ribozyme fitness (log ratio)” value is -4.44.
On to A37U A43U G93C U116A, for which the “polymerase ribozyme fitness (log ratio)” value was -6.51.
Turning to A5U G113A G122A G127C, the “polymerase ribozyme fitness (log ratio)” value was -3.33.
To A5G C49G belongs -1.85; to A50U C56U G71C C123A, -6.51.
Consider U7C G36A U116C A118U U132A, for which the “polymerase ribozyme fitness (log ratio)” value was -2.98.
The result for G23A C72U C85U reads -6.02; that for G57U G110A, -1.16.
In the case of G63C C79U U129C, the “polymerase ribozyme fitness (log ratio)” value was -0.807.
In the case of C56A G117U, the “polymerase ribozyme fitness (log ratio)” value was -2.01.
The result for C20U G42U U55G G69C U87C reads -4.35.
U30C A37C C73G U96A C115U: the “polymerase ribozyme fitness (log ratio)” value is -5.56.
The result for U7G G45C G77A C82A C98A reads -6.73; that for C89U C101U, -1.33.
On to C3A A6C U59A C62A U78G C97U G117C G135C, for which the “polymerase ribozyme fitness (log ratio)” value was -6.34.
A5U C8U G93A A105G: the “polymerase ribozyme fitness (log ratio)” value is -2.84.
Take C49A A74G U116G: the “polymerase ribozyme fitness (log ratio)” value is -1.13.
To C12U G44A C88U U92G U112A U116G G135A belongs -5.19; to G44A A95C, -1.35.
On to G17A A83G, for which the “polymerase ribozyme fitness (log ratio)” value was -3.95.
To C34A U59A belongs -2.58.
On to C40G G71U, for which the “polymerase ribozyme fitness (log ratio)” value was -1.23.
For the variant G63U C82A, the “polymerase ribozyme fitness (log ratio)” value is -0.955.
To C12U A26U C34G A50U C79U A83C C85G G110A A111C belongs -7.36.
To G47U C86G belongs -0.954; to C15G A29C G71C C86U G113U G120U U129A, -6.08; to C40G G135U, -1.71.
On to A27U G57U C73G U78C U96A A111U, for which the “polymerase ribozyme fitness (log ratio)” value is -5.99.
Turning to A50C C62U C115U, the “polymerase ribozyme fitness (log ratio)” value is -2.55.
On to C8U C70U G110A, for which the “polymerase ribozyme fitness (log ratio)” value was -1.5.
To C13U G51A C56G C72A U78G C89U belongs -0.967; to A43C G61U G117A, -3.52.
For G47U C123U, the “polymerase ribozyme fitness (log ratio)” value is -0.404.
The result for C72A G113C reads -2.03.
The result for C72U C101G C115U reads -3.38; that for A18G C72A, -2.98.
To G42U G71C belongs -3.19; to G17A U55A C72A A84G, -5.99.
For C13G G19U G71C U112C, the “polymerase ribozyme fitness (log ratio)” value is -4.61.
The result for G36U C104A reads -2.99; that for G128C U133A, -2.85; that for C22U G69U C94G, -1.67.
On to C20A U96A, for which the “polymerase ribozyme fitness (log ratio)” value is -4.02.
The result for G10A C70A G122A reads -1.23.
As to G10U A46U C82G G127U, the “polymerase ribozyme fitness (log ratio)” value was -3.03.
To A2G C13G C82G U129C belongs -1.79; to G47C U81G, -3.84; to G10C A66G A83U, -1.48.
To G10U C15U A18U C49A C70U C80A G93U G117U belongs -7.04; to U9G A118U G120U G122A, 1.52; to G61A C79G, -0.521.
For G51U G61U, the “polymerase ribozyme fitness (log ratio)” value was -3.14.
The result for C72A C82G U112G G117A U126C U129G reads -5.85; that for C53A A111C, 0.297; that for U9A G45U G113U G122U, -2.61.
To C11G G36A C70A belongs -1.16; to C11A C28U C53U C89A, -5.79.
In the case of U81C C102U, the “polymerase ribozyme fitness (log ratio)” value was -2.2.
To C20U A26C G52A G69A C72G A118G G120C U126G belongs -6.5; to C13U C99U, -2.12; to C20U G45U A50C G77A U78C A84U C123A, -3.79.
With C86A A95C, the “polymerase ribozyme fitness (log ratio)” value is -2.08.
The result for G42C C89U C102A reads -5.66; that for C8A C12U, -0.964.
With A50G C76G, the “polymerase ribozyme fitness (log ratio)” value was -0.226.
Consider A29C C49A G77A U78A, for which the “polymerase ribozyme fitness (log ratio)” value was -3.15.
Regarding C8G A37U U38C G47A U131A, the “polymerase ribozyme fitness (log ratio)” value was -1.99.
To G47A C101A belongs -1.93.
Consider C8A A41U G57A C104A, for which the “polymerase ribozyme fitness (log ratio)” value is -5.75.
G61U U129G U133A: the “polymerase ribozyme fitness (log ratio)” value is -2.01.
The result for A16U C56U reads -1.86; that for C40U G42U, -1.7.
The result for U9A G93A C115U reads -1.19; that for A5G C79U, 0.091; that for G44A G63U, -1.78.
To C11G A37C A46C G63U C123U belongs -1.9; to G44A G110C, -4.8.
Turning to U116G A121C, the “polymerase ribozyme fitness (log ratio)” value is -0.876.
To C56U G69A G113A belongs -5.38; to C13G C124A G128U, -0.0372; to U7C C28A U78A C123U, -3.
The result for A68C A105C U112G reads -6.56; that for U21A G60U A83U U126C, -0.934; that for C11G G128A, -1.59.
As for G17A G47U U54C G71C G77U G117C, the “polymerase ribozyme fitness (log ratio)” value was -8.04.
G36U U106G: the “polymerase ribozyme fitness (log ratio)” value was -4.55.
To C8G C15G C72G belongs -1.27.
The result for G47U A111G G120A reads -2.18.
For the variant C12U C15U G17A A83C C85A G117U, the “polymerase ribozyme fitness (log ratio)” value is -2.34.
To A29U C94A belongs -1.79; to G36C G113C, -2.78; to C8U A18U U116C, -2.04.
The result for A29G G52A G71U C73U reads -4.52; that for A29C A66G G120A, -2.9.
For C70U C89A A90G U92A, the “polymerase ribozyme fitness (log ratio)” value is -6.08.
As for G61A C97G, the “polymerase ribozyme fitness (log ratio)” value is -3.34.
Consider C72A G120A U130G, for which the “polymerase ribozyme fitness (log ratio)” value was -0.18.
To C22U G45A C89U A121C C124G U125A belongs -5.69; to A29G C31A C56G C99A A121G U129C, -7.31; to A41C C73A C86G C104A, -4.53.
To C28A C49U belongs -4.87; to C72U U109G G113A, -5.96.
To G36A C73U G127C belongs -2.76; to C64U C89G, -1.73; to A24G C34A G45U G57U C72U, -5.61.
For U7G C70U, the “polymerase ribozyme fitness (log ratio)” value was -0.201.
For A37G C62A C85U, the “polymerase ribozyme fitness (log ratio)” value was -5.14.
To U78A C114U belongs -1.83; to C12A C62A U112A C123G, -1.09.
Regarding A18U A43G, the “polymerase ribozyme fitness (log ratio)” value is -1.5.
Turning to A37U A50C C124G, the “polymerase ribozyme fitness (log ratio)” value was 1.16.
The result for C15G G17A reads -3.99; that for U87A A111U, -2.69; that for C12U C15U U21G C101A, -3.11.
Turning to C11G G39U C56U, the “polymerase ribozyme fitness (log ratio)” value was -0.805.
The result for U54A G69A U78G C82G A121U U130A reads -1.06; that for U9G C11G C94U A111C, -4.33.
As for C104A C123A, the “polymerase ribozyme fitness (log ratio)” value was -1.7.
To U7C U116C belongs 0.603; to C82A U133A, -0.323.
As to C89A G113U, the “polymerase ribozyme fitness (log ratio)” value was -3.35.
To G10U C28U belongs -2.12; to U54A C72G C104U G113A, -3.29.
Consider C12G U38C G69U C123A, for which the “polymerase ribozyme fitness (log ratio)” value worked out at 1.35.
U92A C114A: the “polymerase ribozyme fitness (log ratio)” value was -3.48.
To G47U G135U belongs -2.02; to A50G C62U C82A A121U, 1.97.
As for C94A U125G, the “polymerase ribozyme fitness (log ratio)” value is -1.1.
The result for A26U G58U reads -4.66; that for C85A, -1.96.
To C12G U55A C56G U81C belongs -1.29; to G93A U112C, 0.676.
Regarding A5U U14G A41U G60C C115U, the “polymerase ribozyme fitness (log ratio)” value was -4.57.
Regarding A18G G48U C72A U130G, the “polymerase ribozyme fitness (log ratio)” value was -6.5.
To G58C C123G belongs 1.75; to G48U G58U C72U, 0.601; to C76G G120A, 0.286.
Turning to C56U A121G, the “polymerase ribozyme fitness (log ratio)” value was 1.94.
Regarding G51U U54G C62A G113U, the “polymerase ribozyme fitness (log ratio)” value is -7.8.
For C3A G10U U129C, the “polymerase ribozyme fitness (log ratio)” value was -1.94.
The result for G63A C72U C101U reads -1.24; that for C12U U112A C115A, 1.79.
